The target in this test is T1, mCAT-1 receptor expressed on HEK 293 cells (stable cell line) (mouse, UniProt Q09143 1-622).
T1 construct: whole, on cells
As to the kind of experiment: fluorescence microscopy, counting of green fluorescent Mo-NP bound per cell after 2.5 h at 37 C; 120 cells per cell line.

T1 sequence (Q09143 whole entry): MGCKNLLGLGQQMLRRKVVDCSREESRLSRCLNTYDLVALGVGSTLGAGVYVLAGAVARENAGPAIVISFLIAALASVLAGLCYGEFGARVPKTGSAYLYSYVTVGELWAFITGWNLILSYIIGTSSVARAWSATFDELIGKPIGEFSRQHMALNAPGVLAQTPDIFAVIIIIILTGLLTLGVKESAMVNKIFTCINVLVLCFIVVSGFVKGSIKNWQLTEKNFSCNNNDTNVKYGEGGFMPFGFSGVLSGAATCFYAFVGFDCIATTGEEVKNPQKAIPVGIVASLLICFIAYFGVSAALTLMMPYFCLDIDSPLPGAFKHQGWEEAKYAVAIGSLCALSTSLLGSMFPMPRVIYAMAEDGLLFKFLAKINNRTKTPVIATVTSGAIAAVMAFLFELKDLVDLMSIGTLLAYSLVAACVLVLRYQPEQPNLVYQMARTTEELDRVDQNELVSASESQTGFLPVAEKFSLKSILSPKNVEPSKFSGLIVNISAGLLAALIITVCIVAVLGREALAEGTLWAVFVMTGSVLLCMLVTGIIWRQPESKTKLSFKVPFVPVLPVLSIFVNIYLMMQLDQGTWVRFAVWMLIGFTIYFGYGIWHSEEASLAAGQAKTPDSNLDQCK

B1: Moloney murine leukemia virus (Mo-MLV) envelope protein, in virus membranes coated onto 100 nm carboxylate-modified fluorescent nanoparticles (Mo-NP) (other)
chain: ASPGSSPHQVYNITWEVTNGDRETVWATSGNHPLWTWWPDLTPDLCMLAHHGPSYWGLEYQSPFSSPPGPPCCSGGSSPGCSRDCEEPLTSLTPRCNTAWNRLKLDQTTHKSNEGFYVCPGPHRPRESKSCGGPDSFYCAYWGCETTGRAYWKPSSSWDFITVNNNLTSDQAVQVCKDNKWCNPLVIRFTDAGRRVTSWTTGHYWGLRLYVSGQDPGLTFGIRLRYQNLGPRVPIGPNPVLADQQPLSKPKPVKSPSVTKPPSGTPLSPTQLPPAGTENRLLNLVDGAYQALNLTSPDKTQECWLCLVAGPPYYEGVAVLGTYSNHTSAPANCSVASQHKLTLSEVTGQGLCIGAVPKTHQALCNTTQTSSRGSYYLVAPTGTMWACSTGLTPCISTTILNLTTDYCVLVELWPRVTYHSPSYVYGLFERSNRHKREPVSLTLALLLGGLTMGGIAAGIGTGTTALMATQQFQQLQAAVQDDLREVEKSISNLEKSLTSLSEVVLQNRRGLDLLFLKEGGLCAALKEECCFYADHTGLVRDSMAKLRERLNQRQKLFESTQGWFEGLFNRSPWFTTLISTIMGPLIVLLMILLFGPCILNRLVQFVKDRISVVQAL
notes: Native env in virus membranes released by osmotic shock and sonication, then extruded over nanoparticles; In the β-lactamase experiments the particle core also carried covalently coupled B. cereus penicillinase; also called Mo-nanoparticles; Mo env-coated nanoparticles
Take B1: the “fold more Mo-NP bound than by cells lacking the receptor” value was 26 fold.
